Laboratory results published in the DeepSol protein solubility set.

test: soluble on expression in E. coli; label from the status in PepcDB or PDB records

Sequence	soluble on expression in E. coli
MNNQLVISDYIFPIHQYGKMGTIHSVFERSFNLKVQDQLINVANFHNYLSSFGMFLPDQLFQEIFPYVQQGNKVKITENQLTFYSTVGVKTIQLTPAEVVSLNITHFKLEKDQLRLLRDRLLARNLERRIGLPLDERAKHIFKKMSQKQKVWTLSEWQEVTNYLIGRGKGLTPSGDDILVAYQTILFILADERAAALAATLSAANLSTTDVSKGYIASSAKGYVNSLLYQLLLDLENHRDNRVDENIDRIIQIGHSSGKDMSFGMLLALQSVELDEK	not soluble
GMDNWQDITDDRLVRPIHPGEVIADILDDLDINTANFAEILGVSNQTIQEVINGQRSITVDIAIRLGKALGNGPRLWLNLQQKVDLWYALQSHKEEYEQVMTLV	soluble
MSKQELDAALKKAKELASSAPVVVFSKTYCGYCNRVKQLLTQVGASYKVVELDELSDGSQLQSALAHWTGRGTVPNVFIGGKQIGGCDTVVEKHQRNELLPLLQDAAATAKTSAQL	soluble
GPGSMLRKVTSPYKVSIRRTAASVTAADSKKAILRLIRFDPETNKQRVESYEYDKHHDYMVLDLITAVKAHQDPTLAFRASCCEGVCGSCAMNINGVNSLACITFSQQVTTVGPLPNFPVIKDFVVDLRHFFRQYAYIRPFVRNVNLDRSRLDNIVERYKTITKVIHGVPSDDEAQLAQLESKSGAQTDVMALLQLLDAVCESGNVTHLIRTLEALQERGMQLDQGKVKALIEETLQNYKKRKLGA	not soluble
MKAVMLLSGGIDSSTLLYYLLDGGYEVHALTFFYGQKHSKEIESAEKVAKAAKVRHLKVDISTIHDLISYGALTGEEEVPKAFYSEEVQRRTIVPNRNMILLSIAAGYAVKIGAKEVHYAAHLSDYSIYPDCRKEFVKALDTAVYLANIWTPVEVRAPFVDMTKADIVRLGLKLGVPYELTWSCYEGGDRPCLSCGTCLERTEAFLANGVKDPLLSDEEWKNAVKIYEEMRARNEGKSD	not soluble
MLITDTLSPQAFEEALRAKGDFYHIHHPYHIAMHNGNATREQIQGWVANRFYYQTTIPLKDAAIMANCPDAQTRRKWVQRILDHDGSHGEDGGIEAWLRLGEAVGLSRDDLLSERHVLPGVRFAVDAYLNFARRACWQEAACSSLTELFAPQISQSRLDSWPQHYPWIKEEGYFYFRSRLSQANRDVEHGLALAKAYCDSAEKQNRMLEILQFKLDILWSMLDAMTMAYALQRPPYHTVTDKAAWHTTRLVLEHHHHH	soluble
MPREYEFAEKILFTEEEIRTRIKEVAKRIADDYKGKGLRPYVNPLVLISVLRGSFMFTADLCRALCDFNVPVRMEFICVSSYGEGLTSSGQVRMLLDTRHSIEGHHVLIVEDIVDTALTLNYLYHMYFTRRPASLKTVVLLDKREGRRVPFSADYVVANIPNAFVIGYGLDYDDTYRELRDIVVLRPEVYAEREAARQKKQRAIGSADTDRDAKREFHSKY	soluble
MVNTLEGLESTRNLILKENPMRRAAELVARLSADEVTMRAAKYELIKFNRAFQNFMLVLDENIEEILMSNDNSTRIQLKKLPEFPSFSDSFMQEYEKALLNGAEKLKASTSSEKGSIPSVSFSSSISSSSAELSDARCLICLDDVISTEKTIKCNSCRRRFHLDCASQWFKEKSVCPACNRGMLDPTEFPSL	not soluble
MDIKIAQESFPILVAENIYHCGYHSEKSYGAASYLIQHSQGNILVDSPRFTPPLVKRIEAMGGIKYMYLTHQDDVADHQKFAEHFQCQRILHTDEISAGTRNVEIQLTGLEPFPLQPDVLIIPVPGHTKGHTVLLYKNKFLFTGDHLAWSENRHQLTAFRDVCWYSWAEQIKSMRRLADYSFDWVLPGHGRRFHADVETMRQQMHKCIELMTDERQPLTFNSLEHHHHHH	not soluble
GPGSMPSAPTSVTAVVQLPPLIDCHVHFREPGLEHKADIASESTAAYYGGITVACDMPNTSPPTQSVAALADKVARAKATAHAHCQLFFFFGATAEAHLQELEELWTNPAHAELKTHCCGLKLYLDNSTGNMKSSLSVVEKSFEMCGRLQIVLVAHCEQSEINDAAAAQHPYDGPASHSLRRPADSEAASVQSAIALARQCRTPLHLAHVSTAQSLDLIREARAADPTLQLTCEVTPHHLFLTTSDYSCCGARVKVNPPVRPPQHHEALWAGLLDGTVDCVGTDHAPHTIAEKDHCDAAAQPPSGMPAIEVVVPLLLTVVAGQWPHPTAAKPSALAAAEHQGRTLTLDDVVRVLHTNPNRIFNLRQPDAPHRSFDLACEWTVRGEELHSKCQWTPYEGWRLRGRVLANE	soluble
MGSDKIHHHHHHENLYFQGMLYHLVMLEPEGEGAMDRIMEAMAILDGLAPELPGLTEFRHGPNRDFEQKSERYPYGFLCTFTDKAALDAYAVHPTHQRAGGMLVASCRNGADGILVVDLEV	soluble
MSFFPGNDPVAGDAFACDAIENLIIPRTSDIGGFAVRRALPTRQRRLVGPFIFFDRMGPAILKAGEALDVKPHPHIGLSTVTYLFDGEIKHRDSLGTELVIRPGDINLMTAGRGIVHSERTPENLRGHPLSMSGLQTWLALPDHMEEIAPAFAHTAKEDMPLIDIKGASGRVVIGEFEGLTSPVSAFTDTLYVDLSLEPGVKFPFSADHEERAIYILSGSLDVAGDIFAADQLLVFRPGDDITLQAGSNGCHIMIFGGAALNQRRYIWWNFVSSSKERIEQAKQEWRTGRFDIVPGDEEEFVPLPEG	not soluble
AIAGTHSGHERNGESARGGALQRLERRLAAAWAEQDAYQIEQLAGMIYDRLVRSDPSAAATVLEQNAHRLAVAGKPAEAAELATRLIRHWRELEQRPFYLARLQQMVLEPLQALSGVEAARARTMVLEAVLAWKRASATVDTEEAAPAELAPVQDALVDAYVLCGEWARAQYQVVCRGGPAERDLAFIDEQLGPHLANDVERMLARTRLVLFYVLAGNLKAGRALVEEIQRKHPTAPMTNFVVILMQVLERARNVDSSKRRLLRNFCDDLKRVYHWAFSLDPELDAMLDDVLKAQGL	soluble
MSHQEQQEQEIEALEAIYSEEEIHVASRDYPNIELSIQLKSNQYEDPTDDDFDVELGIEFTENYPDEIPIITLNGIEDAFTAERIAESIDKLRSVAEENLGMVMVFAIVSALQDEIGELVDVKKRAKEEKVEIEKEKKEAESRKKFEGTVVTPDTFRAWKDRFDEERKAEIDAAEKERLASLAGRLTGRQLFLRDATLNLSDVTLIGAQDEVEIDESLFDNEELEGLEMDSEEEEEDDEE	soluble
GPGSMKRADGRESPRAVRAIHVATNVLANCHSSACVEIGKTRVLCGVRPPQHLVQEYRGTRGRVSCQVHRSLASSSNLDNSGDRDMALALEGVAEQAVVLERIPQLLVGVLIEVVHDDGALWDAATTALCVALTAGGVEVYDTFSACSAALRHDGAIIVDLTREEAAAAMASVVVCSGLSLGGVYYCCHKGACEATTMSQLVQAATKGLQVRKVPLLEQIRNQLV	soluble
MHHPPVEELELIDSPAALEWAREWSQATQERWSNDALQRSIREALDTDARIPYVTRRGEYLYNFWRDRDHPRGVWRRTTLESFTSDSPQWQVLIDVDRLAASEEESWVWKGAHVRPHHFDRALIRLSRGGADAVEIREFDLDSGSFVEDHAFAVPEAKTQVCWVDRDTVLVGTDMGAGSLTESGYPARVHVWRRGTNLAEAEEFFCGLSSDLAVSAWAETVPGFERLFVRRALDFYRSRTFIQRDGHLQIIEVPEDCTVVVHREWMYVLPREEYAGIASGGVGAILFEDF	not soluble
MADKIKVSLLGSTGMVGQKMVKMLAKHPYLELVKVSASPSKIGKKYKDAVKWIEQGDIPEEVQDLPIVSTNYEDHKDVDVVLSALPNELAESIELELVKNGKIVVSNASPFRMDPDVPLINPEINWEHLELLKFQKERKGWKGILVKNPNCTAAIMSMPIKPLIEIATKSKIIITTLQAVSGAGYNGISFMAIEGNIIPYIKGEEDKIAKELTKLNGKLENNQIIPANLDSTVTSIRVPTRVGHMGVINIVTNERINIEEIKKTLKNFKSLPQQKNLPTAPKQPIIVRDEEDRPQPIIDVNAESGMAVTVGRIRHENNVLRLVVLGDNLVRGAAGITILTVEVMKELGYI	soluble
MSNKDIRVVVGMSGGVDSSVTAYLLKEQGYDVIGIFMKNWDDTDENGVCTATEDYNDVIAVCNQIGIPYYAVNFEEQYWDKVFTYFLDEYKKGRTPNPDVMCNKEIKFKAFLEHALKLGADYVATGHYARIRRHDDGHVEMLRGVDNNKDQTYFLNQLSQEQLSKVMFPIGDIEKSEVRRIAEEQNLATAKKKDSTGICFIGERNFKEFLSHYLPAQSGEMLTLNGKKMGQHSGLMYYTIGQRHGLGIGGDGDPWFVVGKNLNDNVLYVEQGFHHDALYSDYLIASDYSFVNPSEIDLEKGFECTAKFRYRQKDTKVYVQRENENSIRVTFAEPVRAITPGQAVVFYNQEVCLGGATIDDVYKNEGQLSYVVLEHHHHHH	soluble
MGSDKIHHHHHHMIIIIDEASAKLASFYYHDEIFKPQWKCAADMSSASDELHDEFQEKLQEKLPDELREKLYVVLPADESINDFQKTTIQESADNTAKANTGNLRIPKAPTDCIWIVSDRQQKQIADSLGIASVGEPQCGTRYAVESLAELDIEYLERVRRRYNHIPWDIGETDRCLIRELSLADLPALYELYDKPGMTDFVEPLYDYETELEYQKAYIENMYDFYEYGMWLVFSKETGKLIGRAGLEHNEMGYMIAPEFQNLGYATEVCRFIVDYARKNTDFEELYCRIDEKNVASVRLAKRLGFVRNGQIGNERNTGGLDRYVLSI	not soluble
MGSDKIHHHHHHMERTSDYWFMIEPYVHINIANGYMLLYNTLDKETIISNNEKVINLLEELLQDENCGVTILKNEQYRQNDIHSFITNLREKYMGDIIDISLSKGKPIQILPHTNFCNKRNEKYNFIKNANLLHFLNEIIIHLDHILDQDKLIDYLQSMPDNITYSISGDLKHIAKFDKLVDFLNQYNSSKKIICNYINFAIPASVCKNIFLYKIHIHFPIDIKQLIITTQSLKDQNNLFELIFDIASLDDYLKAWEIIEEYQIDKYQFNPIYTGYNIDFFKENVFLKKSDILSTSMSIKDFFIKQMINNNDFGKINIMPNGDVHSNINYPALGNICTHSIFELIQKEIEEGKSWLRVRNQEPCNACIYQWLCPSPSDYEIMIGQTNLCHVNIHNPNCENL	not soluble
MSLRPLAIIGPTGAGKSQLALDVAARLGARVSVEIVNADAMQLYRGMDIGTAKLPVSERRGIPHHQLDVLDVTETATVARYQRAAAADIEAIAARGAVPVVVGGSMLYVQSLLDDWSFPATDPSVRARWERRLAEVGVDRLHAELARRDPAAAAAILPTDARRTVRALEVVELTGQPFAASAPRIGAPRWDTVIVGLDCQTTILDERLARRTDLMFDQGLVEEVRTLLRNGLREGVTASRALGYAQVIAALDAGAGADMMRAAREQTYLGTRRYVRRQRSWFRRDHRVHWLDAGVASSPDRARLVDDAVRLWRHVTEGHHHHHH	soluble
MLEKSFLKSKQLFLCGLGVLMLQACTCPNTSQRNSFLQDVPYWMLQNRSEYITQGVDSSHIVDGKKTEEIEKIATKRATIRVAQNIVHKLKEAYLSKTNRIKQKITNEMFIQMTQPIYDSLMNVDRLGIYINPNNEEVFALVRARGFDKDALSEGLHKMSLDNQAVSILVAKVEEIFKDSVNYGDVKVPIAM	not soluble
ALEGTEFARSEGASALASVNPLKTTVEEALSRGWSVKSGTGTEDATKKEVPLGVAADANKLGTIALKPDPADGTADITLTFTMGGAGPKNKGKIITLTRTAADGLWKCTSDQDEQFIPKGCSR	soluble
GPHSMRYYETATSRRGLGEPRYTSVGYVDDKEFVRFDSDAENPRYEPQVPWMEQEGPEYWERITQVAKGQEQWFRVNLRTLLGYYNQSAGGTHTLQRMYGCDVGSDGRLLRGYEQFAYDGCDYIALNEDLRTWTAADMAAQITRRKWEQAGAAEYYRAYLEGECVEWLHRYLKNG	soluble
